From PMC11992677 come the findings set out here.

Data set [1] deals with METTL3 (METTL3/14 complex);METTL14 (METTL3/14 complex). The data set is described as follows: thermal shift (nanoDSF). As to conditions: MST and nanoDSF: 20 mM Tris pH 7.5, 50 uM ZnCl2, 1% glycerol, 1 mM DTT (MST 100 nM probe; nanoDSF 1 uM protein, 20-80 C). EMSA: 40 mM KCl, 20 mM Tris pH 7.6, 1. (In EMSA bound probe runs differently from free probe, usually more slowly.)
Data set [2] has the same test system. Put plainly: MST. The note with it: MST and nanoDSF: 20 mM Tris pH 7.5, 50 uM ZnCl2, 1% glycerol, 1 mM DTT (MST 100 nM probe; nanoDSF 1 uM protein, 20-80 C). EMSA: 40 mM KCl, 20 mM Tris pH 7.6, 1.
Data set [3] deals with MacroH2A.1.1 (with H2B);H2B (with MacroH2A.1.1) (;). The data set is described as follows: thermal shift (nanoDSF). As to conditions: 50 uM ZnCl2; dose-dependent; poly(ADP-ribose) polymer, no base sequence; MST and nanoDSF: 20 mM Tris pH 7.5, 50 uM ZnCl2, 1% glycerol, 1 mM DTT (MST 100 nM probe; nanoDSF 1 uM protein, 20-80 C). EMSA: 40 mM KCl, 20 mM Tris pH 7.6, 1.
The test system is the same in data set [4]. The data set is described as follows: MST. The note with it: poly(ADP-ribose) polymer, no base sequence; MST and nanoDSF: 20 mM Tris pH 7.5, 50 uM ZnCl2, 1% glycerol, 1 mM DTT (MST 100 nM probe; nanoDSF 1 uM protein, 20-80 C). EMSA: 40 mM KCl, 20 mM Tris pH 7.6, 1.

Usually Kd stands for the concentration at which binding is half-saturated. The low end stands for tighter binding, the high end for weaker binding. As to “DRACH RNA probe (4 tandem repeats of DRACH motif)”, the binding signal in data set [1] was 1 C (delta Tm). In data set [2], this substance registered a Kd of 700 nM.
For PAR (poly-(ADP-ribose)), the binding signal (C (delta Tm, maximum)) in data set [1] (50 uM ZnCl2, concentration-dependent, poly(ADP-ribose) polymer, no base sequence) is over 2; in data set [3], 3. Also, the Kd in data set [2] (poly(ADP-ribose) polymer, no base sequence) was 1100 nM; in data set [4], 500 nM.
